Consider 4 molecules from patent US20260125454A1.

Like-named read-outs stand apart in the source and are kept apart here.

The target of test [1] is synthetic human α-CGRP polypeptide (SEQ ID NO: 97)-NH2 (human). Briefly: BLI (Octet), antibody on AHC2, 50 nM CGRP; association pH 7.4, dissociation pH 5.5.
For test [2] the target is unchanged. Briefly: BLI (Octet), antibody on AHC2, 50 nM CGRP; association pH 7.4, dissociation pH 7.4. On the technique in general: In BLI a coated tip is dipped into the sample, and binding shifts an interference pattern.
The target is the same in test [3]. Description: BLI (Octet), antibody on AHC2, 50 nM CGRP; association pH 5.5, dissociation pH 5.5.
In test [4] the target is CGRP antigen. Description: cell-based or functional assay.
Test [5] has as its target CGRP antigen. Description: cell-based or functional assay. This is another data set of the same source.
The target in test [6] is CGRP antigen. Briefly: cell-based or functional assay. This is another data set of the same source.
Test [7] deals with Biotin-huCGRPaSA (human). Description: ELISA, supernatant; relative to chimeric C245. In general terms: An ELISA detects its analyte on a solid surface through an enzyme-linked reagent.
Biotin-huCGRPaSA (human), sequence (peptide, as listed by the source): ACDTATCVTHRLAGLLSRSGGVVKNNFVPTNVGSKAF

synthetic human α-CGRP polypeptide (SEQ ID NO: 97)-NH2 (human), sequence (peptide, as listed by the source): as above

B1: Galcanezumab Analogue (antibody, INN chains, looked up, V domains shown)
VH: QVQLVQSGAEVKKPGSSVKVSCKASGYTFGNYWMQWVRQAPGQGLEWMGAIYEGTGKTVYIQKFADRVTITADKSTSTAYMELSSLRSEDTAVYYCARLSDYVSGFGYWGQGTTVTVSS
VL: DIQMTQSPSSLSASVGDRVTITCRASKDISKYLNWYQQKPGKAPKLLIYYTSGYHSGVPSRFSGSGSGTDFTLTISSLQPEDFATYYCQQGDALPPTFGGGTKVEIK
modifications: in-house analogue
What is called koff is a measure of how fast the partners let go of each other. As for B1, the Binding signal (nm) was 0.12 nm in test [1], 0.14 nm in test [2] and 0.11 nm in test [3]. Besides, the koff was 0.00871 s⁻¹ in test [1], 8.36e-05 s⁻¹ in test [2] and 0.000251 s⁻¹ in test [3].

B2: fremanezumab from Teva (antibody, INN chains, looked up, V domains shown)
VH: EVQLVESGGGLVQPGGSLRLSCAASGFTFSNYWISWVRQAPGKGLEWVAEIRSESDASATHYAEAVKGRFTISRDNAKNSLYLQMNSLRAEDTAVYYCLAYFDYGLAIQNYWGQGTLVTVSS
VL: EIVLTQSPATLSLSPGERATLSCKASKRVTTYVSWYQQKPGQAPRLLIYGASNRYLGIPARFSGSGSGTDFTLTISSLEPEDFAVYYCSQSYNYPYTFGQGTKLEIK
One may read the IC50 as the point on the concentration scale where inhibition reaches its midpoint. Lower therefore signals greater potency. In the case of B2, the IC50 amounted to 0.0563 µg/mL in test [4], 0.0847 µg/mL in test [5] and 0.0613 µg/mL in test [6]. In addition, in test [5], the Relative binding activity (%) vs Ref(Teva) was 100%.

B3: Fremanezumab Analogue (antibody, INN chains, looked up, V domains shown)
VH: B2 VH
VL: B2 VL
modifications: in-house analogue
Consider B3, for which the Binding signal (nm) was 0.1 nm in test [1], 0.12 nm in test [2] and 0.08 nm in test [3]. For the same molecule, the koff in test [1] was below 1e-05 s⁻¹; in test [2] it was below 1e-05 s⁻¹; in test [3], 5.1e-05 s⁻¹.

B4: hu34 (antibody, V domains shown)
VH: QVQLVQSGAEVKKPGASVKVSCKASGYTFIDFNMHWVRQAPGQRLEWMGYIYPYNGDVVYNQNFTNRVTLTVDTSSSTAYMELSSLRSEDTAVYYCAREGLGGYWGQGTLVTVSS
VL: DIVLTQSPDSLAVSLGERATINCKASQNIDFDGYAYMNWYQHKPGQPPKVLIYSVFNLESGVPDRFSGSGSGTDFTLTISSLQAEDVAVYYCQQSHEVPYTFGQGTKLEIK
With B4, the Relative binding activity, % in test [7] was 5%.
